Experimental data as given in patent publication US12072338B2, “Pharmaceutical peptides for the treatment of inflammatory diseases” (PROTAGONISTS LTD., priority 2007, dated 2024).
Like-named read-outs stand apart in the source and are kept apart here.

Assays:
Exodus-2 = molecular target: T1, Exodus-2 (Homo sapiens, UniProt O00585); assay: Micro-array analysis of chemokine binding peptides: Exodus-2
T1 construct: purchased 300-35
T1 sequence (O00585 24-134): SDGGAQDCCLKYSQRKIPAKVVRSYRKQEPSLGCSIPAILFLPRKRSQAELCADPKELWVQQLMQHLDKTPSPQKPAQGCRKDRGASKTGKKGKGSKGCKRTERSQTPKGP
Procedure, shortened: (§1)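 Spot CK 25/50 μg/ml, 5 repeats; block 1 h RT; recombinant phage 10^7 pfu/μl, 1 h RT, agitation; anti-M13 mAb 45 min RT; Cy3 GAM IgG; scan, RF vs CK conc.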

MIP3-α = molecular target: T2, MIP3-α (Homo sapiens, UniProt P78556); assay: Micro-array analysis of chemokine binding peptides: MIP3-α
T2 construct: purchased 300-29A
Experimental: (1) Printing: Chemokine (CK) solution (in water) was serially diluted with Print Reagent (GenTel BioSurfaces USA) to final concentrations of 50 μg and 25 μg/ml. BSA/BSA-Biotin control solutions (in water) were diluted with Print Reagent to 100 μg/ml. Amplified stock of M13 phage control (M13KEgIII Cloning Vector, New England Biolabs, Cat.No.E8101S) was stored in Tris Buffered Saline (TBS; pH7.5, 4° C.) and diluted with Print Reagent to the working titre (10^8 pfu/μl). An automated spotting robot (16 pin print tool, 0.4 mm head; BioRobotics, UK) was used to print the CK/BSA control/M13 control, 5 repeats per sample (CK 25 μg/ml and 50 μg/ml; BSA 100 μg/ml; M13 20 μl), on PATH Protein Microarray Slides (GenTel, Prod.No. 2-1005/-1025) at […], and 50-70% relative humidity. Printed micro-array slides were stored at Room Temperature (RT) or 4° C. for at least 24 h before use. […]
(11) Analysis: Quantitative analysis of micro-array was performed by the SpotReader program of Niles Scientific (USA) and presented as Relative Fluorescence (RF) as a function of CK concentration. Micro-array readout (Cy3 fluorescence) was quantified to determine the relative binding affinities of a CBP for the CKs and by inference, the specificity of the CBP for binding to a CK.

Eotaxin 2 = molecular target: T3, Eotaxin 2 (Homo sapiens, UniProt O00175); assay: Micro-array analysis of chemokine binding peptides: Eotaxin 2
T3 construct: purchased 300-33
T3 sequence (O00175 27-119): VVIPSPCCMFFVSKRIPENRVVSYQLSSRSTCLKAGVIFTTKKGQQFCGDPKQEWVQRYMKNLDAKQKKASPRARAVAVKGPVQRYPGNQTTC
Procedure, shortened: as §1

IP-10 = molecular target: T4, IP-10 (Homo sapiens, UniProt P02778); assay: Micro-array analysis of chemokine binding peptides: IP-10
T4 construct: purchased 300-12
T4 sequence (P02778 22-98): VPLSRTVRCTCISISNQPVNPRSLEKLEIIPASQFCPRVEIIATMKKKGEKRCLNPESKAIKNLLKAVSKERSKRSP
Procedure, shortened: as §1

T2 sequence (P78556 27-96): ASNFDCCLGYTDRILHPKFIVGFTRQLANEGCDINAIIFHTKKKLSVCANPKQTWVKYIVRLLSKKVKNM

binding to Exodus-2, stated in words (Exodus-2) | binding to MIP3-α, stated in words (MIP3-α) | binding to Eotaxin 2, stated in words (Eotaxin 2) | binding to IP-10, stated in words (IP-10) | binding to IP-10, stated in words (IP-10; listed as P8.8) | binding to Eotaxin 2 with relatively high affinity (Relative Fluorescence Units) (Eotaxin 2; limit = start of the upper 75% of that peptide's response range) | Sequence
bound | bound | bound | bound | bound specifically and differentially |  | WVFGAAMCK [Ph-p8.8]
bound |  |  |  |  | > 15,000 RFU | DYDYGAPC [Ph-p30]
